According to article doi:10.64898/2025.12.08.692957:

Columns and labels:
[1] = molecular target: TagF, DyLight 488 labelled (Acinetobacter baylyi); test: flow-induced dispersion analysis
[2] = molecular target: Hcp (purified) (Acinetobacter baylyi); test: flow-induced dispersion analysis
[3] = molecular target: Hcp (purified) (Acinetobacter baylyi); test: mass photometry

Hcp (purified) (natural protein) was tested, and the Kd [1] was 30.4 µM, the stoichiometry N [2] was 6 and the percent of Hcp present as hexameric complex [3] was > 93%. It also gave a stoichiometry N [3] of 6.
